Source: PMC4344312

B1: human glucagon like peptide-1 receptor (hGLP-1R): N63, 82, 115L (protein)
parent chain: MAGAPGPLRLALLLLGMVGRAGPRPQGATVSLWETVQKWREYRRQCQRSLTEDPPPATDLFCNRTFDEYACWPDGEPGSFVNVSCPWYLPWASSVPQGHVYRFCTAEGLWLQKDNSSLPWRDLSECEESKRGERSSPEEQLLFLYIIYTVGYALSFSALVIASAILLGFRHLHCTRNYIHLNLFASFILRALSVFIKDAALKWMYSTAAQQHQWDGLLSYQDSLSCRLVFLLMQYCVAANYYWLLVEGVYLYTLLAFSVLSEQWIFRLYVSIGWGVPLLFVVPWGIVKYLYEDEGCWTRNSNMNYWLIIRLPILFAIGVNFLIFVRVICIVVSKLKANLMCKTDIKCRLAKSTLTLIPLLGTHEVIFAFVMDEHARGTLRFIKLFTELSFTSFQGLMVAILYCFVNNEVQLEFRKSWERWRLEHLHIQRDSSMKPLKCPTSSLSSGATAGSSMYTATCQASCS
B2: human glucagon like peptide-1 receptor (hGLP-1R): tunicamycin (protein)
parent chain: B1 parent chain

Key:
[1] = total lysate immunoblot, anti-GFP; conditions: glycan lost; control: SP-VSVG WT
[2] = cell surface ELISA, anti-hGLP-1R, unpermeabilised cells; conditions: glycan lost; control: SP-VSVG WT, untreated
[3] = confocal immunofluorescence, GFP and surface anti-hGLP-1R; conditions: glycan lost; control: SP-VSVG WT, untreated

| Protein | expression_or_secretion [1] | localisation_or_trafficking, percent_of_wt [2] | localisation_or_trafficking [3] |
| --- | --- | --- | --- |
| B1 | no change | abolishes | abolishes |
| B2 |  | abolishes | abolishes |
